Experimental findings from patent EP4755913A1 (Abiotech Pharmaceutical Co., Ltd, dated 2026) are described below.

Assay [1] has as its target T1, Human c-Met membrane protein on cells (human, UniProt P08581 25-932). Kind of assay: cell-based or functional assay.
Assay [2] has as its target T2, Human EGFR membrane protein on cells (human, UniProt P00533 25-645). Kind of assay: cell-based or functional assay.
In assay [3] the target is T3, Recombinant human EGFR-HIS (Acrobiosystems, EGR-H5222) (human, UniProt P00533 25-645).
T3 construct: Bought reagent; not shown: His tag
Kind of assay: ELISA, EGFR-HIS coated, anti-human IgG Fc detection. In general terms: In an ELISA, binding on a coated surface is turned into a signal by an enzyme label.

Assay [4] concerns the target T4, Recombinant human c-Met-HIS (Acrobiosystems, C-MET-H5227) (human, UniProt P08581 25-932).
T4 construct: Bought reagent; also called HGFR-his; HGFR-HIS; not shown: His tag
Briefly: ELISA, C-MET-HIS coated, anti-human IgG Fc detection.

In assay [5] the target is T2, Human EGFR membrane protein on cells. Briefly: flow cytometry on CHO-K1 cells overexpressing human EGFR.
The target of assay [6] is T1, Human c-Met membrane protein on cells. Kind of assay: flow cytometry on CHO-K1 cells overexpressing human c-Met. For orientation: In flow cytometry, cells or beads pass a laser one at a time.
For assay [7], the target named is Human C1q (Abcam, Cat No. AB282858) (human, UniProt P02745 23-245; P02746 28-253; P02747 29-245, limits assumed). Briefly: BLI (Octet R8), antibody on FAB2G sensor, C1q in solution. A general note: In BLI a coated tip is dipped into the sample, and binding shifts an interference pattern.
The target of assay [8] is T5, Human FcγRIIA (CD32a) (ACRO, Cat No. CDA-H5221) (human, UniProt P12318 36-218, limits assumed).
T5 construct: Used in solution against antibody on ProA sensors
T5 sequence (looked up): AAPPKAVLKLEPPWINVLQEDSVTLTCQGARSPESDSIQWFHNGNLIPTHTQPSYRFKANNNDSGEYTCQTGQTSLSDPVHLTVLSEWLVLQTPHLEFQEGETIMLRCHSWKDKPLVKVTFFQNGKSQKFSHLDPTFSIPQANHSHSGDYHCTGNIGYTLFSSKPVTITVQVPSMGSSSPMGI
Kind of assay: BLI (Octet R8), antibody on ProA sensor, CD32a in solution.

Assay [9] addresses T6, Human FcγRIIIA (CD16a-V176) (ACRO, Cat No. CD8-H52H4) (human, UniProt P08637 17-208).
T6 construct: Immobilised on HIS1K (anti-His) sensors, so His-tagged; tag not described
Briefly: BLI (Octet R8), receptor on HIS1K sensor, antibody in solution.

Assay [10] deals with T7, Human FcγRIIIA (CD16a-F176) (ACRO, Cat No. CDA-H5220) (human, UniProt P08637 17-208).
T7 construct: Immobilised on HIS1K (anti-His) sensors, so His-tagged; tag not described
The description is as above.

Assay [11] addresses T8, Human FcγRIIIB (CD16b) (ACRO, Cat No. CDB-H5227) (human, UniProt O75015 17-200).
T8 construct: Immobilised on HIS1K (anti-His) sensors, so His-tagged; tag not described
Described as above.

The target in assay [12] is T9, Human FcγRIIB/C (CD32b/c) (ACRO, Cat No. CDB-H5228) (human, UniProt P31994 46-217, limits assumed).
T9 construct: Immobilised on HIS1K (anti-His) sensors, so His-tagged; tag not described
T9 sequence (looked up): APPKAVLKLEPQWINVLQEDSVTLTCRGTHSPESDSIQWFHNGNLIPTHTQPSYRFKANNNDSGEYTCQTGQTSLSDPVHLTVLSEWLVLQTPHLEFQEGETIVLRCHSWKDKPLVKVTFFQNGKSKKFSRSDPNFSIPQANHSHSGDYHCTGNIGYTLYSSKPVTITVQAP
The description is as above.

The target of assay [13] is T10, Human FcγRI (CD64) (ACRO, Cat No. FCA-H52H1) (human, UniProt P12314 16-288, limits assumed).
T10 construct: His-tagged (CD64-His), immobilised on HIS1K sensors; tag not described; also called CD64-His
The assay is described as above.

For assay [14], the target named is T11, Human FcRn (ACRO, Cat No. FCM-H8286) (human, UniProt P55899 24-297; P61769 21-119, biotinylated (Bio-FcRn, site not stated)).
T11 construct: immobilised on SA (streptavidin) sensors; also called Bio-FcRn
Kind of assay: BLI (Octet R8), biotinylated FcRn on SA sensor, antibody in solution.

The target of assay [15] is T4, Recombinant human c-Met-HIS …. Briefly: BLI (Octet R8), affinity for c-Met-his compared with affinity for EGFR-HIS.
Assay [16] has as its target T3, Recombinant human EGFR-HIS …. Kind of assay: BLI (Octet R8), antibody captured on AHC2 sensor, EGFR-His in solution.
The target in assay [17] is T4, Recombinant human c-Met-HIS …. Briefly: BLI (Octet R8), antibody captured on AHC2 sensor, c-Met-HIS in solution.
In assay [18] the target is T12, HGFR-hfc (Acrobiosystems, Cat No. MET-H5256) (human, UniProt P08581 25-932).
T12 construct: Bought reagent; also called human HGFR protein; receptor c-Met; not shown: human Fc (hfc)
Briefly: blocking ELISA, HGFR-hfc coated, HGF-HIS as competitor ligand, anti-His detection.

For orientation: EC50 means the concentration needed to bring the measured effect to its halfway point. The Kd is the free concentration of one partner at which half of the binding sites on the other are occupied at equilibrium, for simple one-to-one binding. For orientation: koff means a measure of how fast the partners let go of each other. Usually kon stands for the rate constant with which the complex forms. The term IC50 denotes the concentration that gives 50% inhibition. A lower IC50 goes with higher potency.

B1: Anti-c-Met/EGFR bispecific antibody BT461-DB (bispecific antibody, human IgG1, kappa)
light 1: DIQMTQSPSSLSASVGDRVTITCRSSQNIVHSNGNTYLDWYQQTPGKAPKLLIYKVSNRFSGVPSRFSGSGSGTDFTFTISSLQPEDIATYYCFQYSHVPWTFGQGTKLQITRTVAAPSVFIFPPSDEQLKSGTASVVCLLNNFYPREAKVQWKVDNALQSGNSQESVTEQDSKDSTYSLSSTLTLSKADYEKHKVYACEVTHQGLSSPVTKSFNRGEC
heavy 1: not shown
light 2: DIQMTQSPSSLSASVGDRVTITCSVSSSVSSIYLHWYQQKPGKAPKLLIYSTSNLASGVPSRFSGSGSGTDFTLTISSLQPEDFATYYCQVYSGYPLTFGGGTKVEIKRTVAAPSVFIFPPSDEQLKSGTASVVCLLNNFYPREAKVQWKVDNALQSGNSQESVTEQDSKDSTYSLSSTLTLSKADYEKHKVYACEVTHQGLSSPVTKSFNRGEC
heavy 2: not shown
notes: DuoBody format, assembled in vitro by Fab arm exchange from BT461-DB-EGFR and BT461-DB-c-Met; parents expressed in FUT8 knock-out CHO-K1 cells (no fucose); also called BT461 with Duobody structure
Consider B1, for which, in assay [1], the “EC50 of Antibody-Mediated ADCC Killing Curves (ADCC Reporter Bioassay, CHOK1-c-Met target cells)” value was 0.162 µg/mL. In assay [2], the “EC50 of Antibody-Mediated ADCC Killing Curves (ADCC Reporter Bioassay, CHOK1-EGFR target cells)” value came out at 0.185 µg/mL. Further, the EC50 amounted to 1.3 µg/mL in assay [3], 0.00822 µg/mL in assay [4], 1.73 µg/mL in assay [5] and 0.266 µg/mL in assay [6]. The Kd in assay [7] stood at 11.2 nM; in assay [8], 1520 nM; in assay [9], 26.5 nM; in [10], 330 nM; in assay [11], 14400 nM; in [12] it was 1650 nM. In addition, the Kd in assay [13] is 8.97 nM; in [14], 228 nM; in assay [16], 21.9 nM; in assay [17], 0.766 nM. Besides, the “fold difference between the affinities of the two arms (c-Met-his against EGFR-HIS)” value in [15] is above 20 fold. The off-rate (koff) in assay [16] was determined as 0.0033 s⁻¹; in assay [17] it was 0.000213 s⁻¹. Besides, the on-rate (kon) was 151000 M⁻¹ s⁻¹ in assay [16] and 278000 M⁻¹ s⁻¹ in assay [17]. The IC50 in assay [18] is 0.456 µg/mL.
